Experiments:
[1] = system: T1, recombinant B. taurus αS1-casein expressed from pMOZ1066 (GY1 signal peptide, αS1-casein, FLAG tag, 6 histidine tag, HDEL peptide)
T1 sequence: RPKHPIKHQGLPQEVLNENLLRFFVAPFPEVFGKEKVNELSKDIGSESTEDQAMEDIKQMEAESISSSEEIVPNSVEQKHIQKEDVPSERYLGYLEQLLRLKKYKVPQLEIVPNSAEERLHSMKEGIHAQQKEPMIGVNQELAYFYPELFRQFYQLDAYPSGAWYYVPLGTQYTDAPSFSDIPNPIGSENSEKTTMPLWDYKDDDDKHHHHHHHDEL

[2] = system: T2, recombinant B. taurus β-casein expressed from pMOZ1066 (GY1 signal peptide, β-casein, FLAG tag, 6 histidine tag, HDEL peptide)
T2 sequence: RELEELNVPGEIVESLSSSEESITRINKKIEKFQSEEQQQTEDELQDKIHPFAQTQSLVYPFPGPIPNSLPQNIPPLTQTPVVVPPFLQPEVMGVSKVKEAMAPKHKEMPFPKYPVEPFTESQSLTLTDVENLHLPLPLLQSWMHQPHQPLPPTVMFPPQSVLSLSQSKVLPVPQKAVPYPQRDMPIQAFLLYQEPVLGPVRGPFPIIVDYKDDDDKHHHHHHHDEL

[3] = target: T3, recombinant B. taurus Beta Casein expressed from pMOZ702 (signal peptide, beta casein, HA tag, 6 histidine tag, HDEL peptide)
T3 chain: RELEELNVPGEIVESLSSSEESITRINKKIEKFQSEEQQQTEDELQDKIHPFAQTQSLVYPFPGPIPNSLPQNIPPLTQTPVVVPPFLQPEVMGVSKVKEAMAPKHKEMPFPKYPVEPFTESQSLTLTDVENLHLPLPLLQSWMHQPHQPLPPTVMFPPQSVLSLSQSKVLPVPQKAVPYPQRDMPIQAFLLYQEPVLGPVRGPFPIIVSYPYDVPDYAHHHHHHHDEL

[4] = target: T4, recombinant B. taurus αS1-casein expressed from pMOZ1066 (GY1 signal peptide, αS1-casein, FLAG tag, 6 … (B. taurus)); assay: TEM with FLAG immunogold labelling of soy embryos; micelle of αS1, β and κ casein in vivo
T4 construct: also called Alpha S1 casein; alphaS1 casein
T4 chain: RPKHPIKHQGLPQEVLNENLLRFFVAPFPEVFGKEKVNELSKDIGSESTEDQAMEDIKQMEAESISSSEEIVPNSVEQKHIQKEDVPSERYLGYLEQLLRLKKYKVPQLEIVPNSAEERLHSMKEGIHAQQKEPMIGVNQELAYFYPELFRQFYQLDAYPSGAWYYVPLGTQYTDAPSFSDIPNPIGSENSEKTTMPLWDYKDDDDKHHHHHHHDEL

[5] = system: T5, recombinant B. taurus Beta Casein expressed from pMOZ702 (signal peptide, beta casein, HA tag, 6 histidine tag, HDEL peptide); remark: listed apart in the source
T5 sequence: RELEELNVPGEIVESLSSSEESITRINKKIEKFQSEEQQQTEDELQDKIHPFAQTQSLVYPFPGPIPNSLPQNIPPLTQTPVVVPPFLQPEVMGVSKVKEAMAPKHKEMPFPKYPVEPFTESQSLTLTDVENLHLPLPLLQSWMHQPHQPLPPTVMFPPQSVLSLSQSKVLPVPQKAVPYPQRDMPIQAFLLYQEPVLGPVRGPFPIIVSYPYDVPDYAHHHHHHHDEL

| Molecule | upward band shift of beta casein on anti-beta-casein Western blot (2 human kinases together, pMOZ702+pMOZ11+pMOZ12) [3] | upward band shift of beta casein on anti-beta-casein Western blot (co-expressed with HsFam20C and HsFam20A together, pMOZ702+pMOZ11+pMOZ12) [3] | upward band shift of beta casein on anti-beta-casein Western blot (2 bovine kinases together, pMOZ702+pMOZ14+pMOZ15) [5] | further results |
| --- | --- | --- | --- | --- |
| recombinant B. taurus Fam20C expressed from pMOZ1066 |  |  |  | phosphorylation by mass spectrometry in 1066 milk [1]: Phosphorylation of alphaSI casein was not detected in 1066 milk (data not shown); phosphosite detected by mass spectrometry in 1066 milk [2]: only one phosphosite S50-p was detected to be phosphorylated in beta casein in both 1066 milk and raw milk (data not shown) |
| recombinant H. sapiens Fam20A expressed from pMOZ12 (protein) QLRPRERPRGCPCTGRASSLARDSAAAASDPGTIVHNFSRTEPRTEPAGGSHSGSSSKLQALFAHPLYNVPEEPPLLGAEDSLLASQEALRYYRRKVARWNRRHKMYREQMNLTSLDPPLQLRLEASWVQFHLGINRHGLYSRSSPVVSKLLQDMRHFPTISADYSQDEKALLGACDCTQIVKPSGVHLKLVLRFSDFGKAMFKPMRQQRDEETPVDFFYFIDFQRHNAEIAAFHLDRILDFRRVPPTVGRIVNVTKEILEVTKNEILQSVFFVSPASNVCFFAKCPYMCKTEYAVCGNPHLLEGSLSAFLPSLNLAPRLSVPNPWIRSYTLAGKEEWEVNPLYCDTVKQIYPYNNSQRLLNVIDMAIFDFLIGNMDRHHYEMFTKFGDDGFLIHLDNARGFGRHSHDEISILSPLSQCCMIKKKTLLHLQLLAQADYRLSDVMRESLLEDQLSPVLTEPHLLALDRRLQTILRTVEGCIVAHGQQSVIVDGPVEQLAPDSGQANLTSHDEL | In lanes containing beta casein coexpressed with 1 human kinase, 2 human kinases, 1 bovine kinase or 2 bovine kinases the bands are shifted upward on the gel relative to the sample transformed with only beta casein | In lanes containing beta casein coexpressed with 2 human kinases the bands are shifted upward on the gel relative to the sample transformed with only beta casein |  |  |
| recombinant B. taurus β-casein expressed from pMOZ1066 (GY1 signal peptide, β-casein, FLAG tag, 6 histidine tag, HDEL peptide) (other, S50-p (phosphosite detected by mass spectrometry in 1066 milk; numbering not stated), Co-expressed with BtFam20C in soybean; also called Beta casein) RELEELNVPGEIVESLSSSEESITRINKKIEKFQSEEQQQTEDELQDKIHPFAQTQSLVYPFPGPIPNSLPQNIPPLTQTPVVVPPFLQPEVMGVSKVKEAMAPKHKEMPFPKYPVEPFTESQSLTLTDVENLHLPLPLLQSWMHQPHQPLPPTVMFPPQSVLSLSQSKVLPVPQKAVPYPQRDMPIQAFLLYQEPVLGPVRGPFPIIVDYKDDDDKHHHHHHHDEL |  |  |  | binding result [4]: binds |
| recombinant H. sapiens Fam20C expressed from pMOZ11 (protein) LDLLPRLERRGARPSGEPGCSCAQPAAEVAAPGWAQVRGRPGEPPAASSAAGDAGWPNKHTLRILQDFSSDPSSNLSSHSLEKLPPAAEPAERALRGRDPGALRPHDPAHRPLLRDPGPRRSESPPGPGGDASLLARLFEHPLYRVAVPPLTEEDVLFNVNSDTRLSPKAAENPDWPHAGAEGAEFLSPGEAAVDSYPNWLKFHIGINRYELYSRHNPAIEALLHDLSSQRITSVAMKSGGTQLKLIMTFQNYGQALFKPMKQTREQETPPDFFYFSDYERHNAEIAAFHLDRILDFRRVPPVAGRMVNMTKEIRDVTRDKKLWRTFFISPANNICFYGECSYYCSTEHALCGKPDQIEGSLAAFLPDLSLAKRKTWRNPWRRSYHKRKKAEWEVDPDYCEEVKQTPPYDSSHRILDVMDMTIFDFLMGNMDRHHYETFEKFGNETFIIHLDNGRGFGKYSHDELSILVPLQQCCRIRKSTYLRLQLLAKEEYKLSLLMAESLRGDQVAPVLYQPHLEALDRRLRVVLKAVRDCVERNGLHSVVDDDLDTEHRAASARHDEL | In lanes containing beta casein coexpressed with 1 human kinase, 2 human kinases, 1 bovine kinase or 2 bovine kinases the bands are shifted upward on the gel relative to the sample transformed with only beta casein | In lanes containing beta casein coexpressed with 2 human kinases the bands are shifted upward on the gel relative to the sample transformed with only beta casein |  |  |
| recombinant B. taurus Fam20A expressed from pMOZ15 (enzyme, from a related filing) MHVSSHLGPRVRSRLQPRERPLGCPCARRAASPAPGPAPSAPRRVEPSGGGDPGSKLRALFAHPLYNEPEEPPLLGPEDSLLAGPEALRYYRRKVARWNRRRKMYKEQLNLTSPEPPVQLRQEASWVQFHLGINRHGLYPRSSPVVSKLLQDMRHFPTISADYSQDEKALLGACDCSQIVKPSGVHLKLVLRFSDFGKAMFKPMRQQRDEETPEDFFYFIDFQRHNAEIAAFHLDRILDFRRVPPTVGRLVNVTREILEVTRNEILQSVFFVSPANNVCFFAKCPYMCKTEYAVCGSPHLLEGSLSAFLPSLNLAPRFSMPSPWIRSYSLAGREEWEVNPLYCEAVKQAYPHNSSSRLLNIIDMAIFDFLIGNMDRHHYEMFTKFGEDGFLIHLDNARGFGRHSHDEVSILAPLFQCCRIKRKTLLHLQLLAQADYRLSDVMRESLLEDQLSPVLTEPHLLALDRRLQTVLRTVQDCIEAHGEQSVVADGPVGQWAPDSSRANATSHDEL |  |  | In lanes containing beta casein coexpressed with 1 human kinase, 2 human kinases, 1 bovine kinase or 2 bovine kinases the bands are shifted upward on the gel relative to the sample transformed with only beta casein |  |
| recombinant B. taurus Fam20C expressed from pMOZ14 (enzyme, from a related filing) MLLPKLERSAARPSGEPGCSCAQPAAEAAAPGWAQARGHPGGELEAAASAAGDAGWPNKHTLRILQDFSSDPSSNLTSHSLEKLPPAAEAAEGAPPGQDPGVRRPPDPAHRPLPRDPGPRGPVLPPGLSGDGSLLTRLFQHPLYQVPIPPLTEGDVLFNVNSDIRFNPKAATAENPDWPHEGPEDEFLPTGEAAVDSYPNWLKFHIGINRYELYSRHNPAVGALLQDLGTQKITSVAMKSGGTQLKLIMTFQNYGQALFKPMKQTREQETPPDFFYFSDYERHNAEIAAFHLDRILDFRRVPPVAGRLVNMTKEIRDVTRDKKLWRTFFISPANNVCFYGECSYYCSTEHALCGKPDQIEGSLAAFLPDLALAKRKTWRNPWRRSYHKRKKAEWEVDPDYCEEVRQTPPYDSSHRLLDVMDMTIFDFLMGNMDRHHYETFEKFGNETFIIHLDNGRGFGKHSHDELSILVPLQQCCRIRRSTYLRLQLLAQEEHRLSLLMAEALRADRVAPVLFQPHLEALDRRLRIVLRAVGDCVEKDGLHSVVEDDLGPEHRAAAGRHDEL |  |  | In lanes containing beta casein coexpressed with 1 human kinase, 2 human kinases, 1 bovine kinase or 2 bovine kinases the bands are shifted upward on the gel relative to the sample transformed with only beta casein |  |

Source: patent US20250034219A1 (MOZZA FOODS, published 2025)
